Experimental findings from doi:10.1101/2022.01.14.476386 (bioRxiv, 2022) are described below.

In experiment [1] the target is T1, eukaryotic initiation factor 4E (eIF4E) (UniProt P06730 1-217). Description: fluorescence correlation spectroscopy.
Experiment [2] has as its target T1, eukaryotic initiation factor 4E (eIF4E). Description: fluorescence anisotropy decay.

Substitutions are numbered along the chain they refer to. Names and notes keep the numbering of the source.

T1 sequence (P06730 whole entry): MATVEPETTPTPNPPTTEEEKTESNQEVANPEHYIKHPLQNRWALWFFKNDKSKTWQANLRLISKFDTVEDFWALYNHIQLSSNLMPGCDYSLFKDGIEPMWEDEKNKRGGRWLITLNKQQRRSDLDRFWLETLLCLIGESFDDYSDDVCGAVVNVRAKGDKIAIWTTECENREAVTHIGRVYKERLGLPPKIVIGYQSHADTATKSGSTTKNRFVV

B1: 4E-BP2 C121 (C35S/C73S/C121ins), non-phosphorylated, labelled with Atto488 at position 121 (natural protein, UniProt Q13542 1-120, looked up)
chain: MSSSAGSGHQPSQSRAIPTRTVAISDAAQLPHDYSTTPGGTLFSTTPGGTRIIYDRKFLLDRRNSPMAQTPPSHLPNIPGVTSPGTLIEDSKVEVNNLNNLNNHDRKHAVGDDAQFEMDIC
modifications: Atto488 maleimide on the inserted cysteine at position 121
For the molecule B1, the binding result in experiment [1] is reported as “binds”.

B2: 4E-BP2 C91 (C35S/C73S/S91C), non-phosphorylated, labelled with Atto488 at position 91 (natural protein, UniProt Q13542 1-120, looked up)
chain: MSSSAGSGHQPSQSRAIPTRTVAISDAAQLPHDYSTTPGGTLFSTTPGGTRIIYDRKFLLDRRNSPMAQTPPSHLPNIPGVTSPGTLIEDCKVEVNNLNNLNNHDRKHAVGDDAQFEMDI
modifications: Atto488 maleimide on cysteine 91
In the case of B2, the binding result in experiment [1] is recorded as “binds”.

B3: 4E-BP2 C14 (S14C/C35S/C73S), non-phosphorylated, labelled with Atto488 at position 14 (natural protein, UniProt Q13542 1-120, looked up)
chain: B2 chain with S14C, C91S
modifications: Atto488 maleimide on cysteine 14
For B3, the binding result in experiment [2] is recorded as “binds”.

B4: 4E-BP2 C35 (C73S), non-phosphorylated, labelled with Atto488 at position 35 (natural protein, UniProt Q13542 1-120, looked up)
chain: B2 chain with S35C, C91S
modifications: Atto488 maleimide on cysteine 35
Take B4: the binding result in experiment [2] is recorded as “binds”.

B5: 4E-BP2 C73 (C35S), non-phosphorylated, labelled with Atto488 at position 73 (natural protein, UniProt Q13542 1-120, looked up)
chain: B2 chain with S73C, C91S
modifications: Atto488 maleimide on cysteine 73
As to B5, the binding result in experiment [1] is “binds”.
